Test results: US20030009022A1 (published 2003)
Ends that are not written are not given here. * marks the point of attachment. For = O=C*

T1: human formyl peptide receptor like-1 (FPRL-1) receptor (human, UniProt P25090 1-351)
T1 sequence (looked up): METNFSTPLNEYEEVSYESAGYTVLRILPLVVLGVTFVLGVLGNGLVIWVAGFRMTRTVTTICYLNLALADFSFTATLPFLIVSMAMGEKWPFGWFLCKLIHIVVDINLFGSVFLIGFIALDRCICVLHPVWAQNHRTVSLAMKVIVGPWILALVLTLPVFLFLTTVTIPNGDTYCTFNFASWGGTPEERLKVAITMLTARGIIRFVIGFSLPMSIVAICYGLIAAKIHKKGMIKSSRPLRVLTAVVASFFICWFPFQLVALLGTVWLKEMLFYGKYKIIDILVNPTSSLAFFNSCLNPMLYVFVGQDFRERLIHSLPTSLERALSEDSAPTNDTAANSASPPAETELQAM

T2: human formyl peptide receptor FPR1 (human, UniProt P21462 1-350)
T2 sequence (looked up): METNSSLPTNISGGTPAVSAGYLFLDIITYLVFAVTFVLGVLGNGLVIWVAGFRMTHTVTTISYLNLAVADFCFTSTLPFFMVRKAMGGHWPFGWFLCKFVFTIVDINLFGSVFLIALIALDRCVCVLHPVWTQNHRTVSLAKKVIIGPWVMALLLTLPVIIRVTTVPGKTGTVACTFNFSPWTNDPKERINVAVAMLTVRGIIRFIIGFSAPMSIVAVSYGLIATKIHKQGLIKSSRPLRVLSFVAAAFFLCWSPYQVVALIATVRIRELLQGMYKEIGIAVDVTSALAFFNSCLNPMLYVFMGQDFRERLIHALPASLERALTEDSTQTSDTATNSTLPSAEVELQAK


Columns and labels:
Assay in all cases: cell-based or functional assay
[1] = biological target: T1, human formyl peptide receptor like-1 …
[2] = biological target: T2, human formyl peptide receptor FPR1
[3] = biological target: T1, human formyl peptide receptor like-1 …; remark: listed apart in the source
[4] = biological target: T2, human formyl peptide receptor FPR1; remark: listed apart in the source

Row | Binder | EC50(nM), transient Ca2+ flux in HEK293/Gα16 cells expressing FPRL-1 [1] [nM] | EC50(nM), transient Ca2+ flux in HEK293/Gα16 cells expressing FPR1 [2] [nM] | further results
1 | LESIFRSLLFRVM [peptide MMK-1] | < 2 | > 10000 | 
2 | CPAAVLWRWVPM [peptide AF-1] | 16 | 5000 | 
3 | SLLWLTCRPWEAM [peptide A5, Ser-Leu-Leu-Trp-Leu-Thr-Cys-Arg-Pro-Trp-Glu-Ala-Met] | 35 | > 10000 | EC50, calcium mobilization in indo-1 loaded human neutrophils [3]: ~300 nM; apparent EC50, induction of β-galactosidase activity by synthetic peptide added to yeast strain CY6565 [3]: ~5000 nM; induction of β-galactosidase activity (FUSI-lacZ, yeast) [3]: 7 fold; stimulation over background levels of β-galactosidase (fus1-lacZ, yeast) [3]: 8 fold
4 | SMCPTASAWVWLM [peptide AF-2] | 87 | 690 | 
5 | RFPKNCHLRPPRMILFTALV [peptide AF-3] | 650 | 380 | 
6 | PPFFFRPVGMF [peptide DM-1] | 2400 | > 10000 | 
7 | MMWLL [peptide MMWLL, Met-Met-Trp-Leu-Leu] | 80 | < 0.3 | 
8 | For-SLLWLTCRPWEAM [f-A5, N-terminally formylated derivative of peptide A5] | 2 | 10 | EC50 against that of A5, calcium mobilization in indo-1 loaded human neutrophils [3]: 10 fold lower EC50 than A5; EC50, calcium mobilization in HEK293/Gα16 cells expressing FPR1 [4]: 0.1 nM
9 | For-Met-Leu-Phe [fMLP, formyl-MLF] | 40 | < 0.3 | EC50, transient calcium mobilization in HEK293/Gα16 cells expressing FPRL-1 [3]: 400 nM; EC50, calcium mobilization in human neutrophils [4]: < 0.2 nM
